What is called Km is the concentration of substrate that gives half-maximal velocity.

Substrate in this series: O=C(O)C[C@H](O)C(=O)O
As to the kind of experiment: purified protein. The class given is biochemical, Methanocaldococcus jannaschii. The note with it: pH 7.2, 50 mM Tris-HCl, 70 °C.

B1: MjFH (MjFHαβ), holo, Fe-S reconstituted (Methanocaldococcus jannaschii DSM 2661) (protein)
chain 1: MKISDVVVELFREAAIYLPEDVKNALEEAYKKESSEISKNTLKAIIENNKIAEETQVPLCQDTGVPIVFLKIGKNINSSEIMKIIEEIKEGVKKATEEVPLRPNVVHPLTRENFKTNVGLNSPFINIEFDESLDREIEIIAFPKGAGSENMSALKMLKPSDGIEGIKNFVLETIANAGGKPCPPIVVGIGIGGTADVALKLAKKALLRKIGERHRDKEIANLEKELLEKINSLGIGAMGLGGDITALDVFIEIAGCHTASLPVGICIQCWADRRAIKRIKLDAKL
chain 2: MEYTFNKLTKKDVKKLKVGDIVYLNGKIYTARDEAHLKIIEMLKSNEKLPFDLNESIIYHAGPIMKKVNDSWVCVSIGPTTSARMNDVEEEFIKLTNISAIVGKGGMKKELLKTFEDYGVVYLAAPGGCAALLANSVKRVDNVYFLDELGMPEAVWELEVNNFGPLIVAMDSHGNSIYEEVNKKVYEKLNELIGL
Turning to B1, the Km stood at 1554 ± 169 µM.

Values taken from article doi:10.1101/2022.09.03.506457v1.
